Assay results taken from IntAct's records for PubMed 24141787.

B1: Partner and localizer of BRCA2 (Homo sapiens), Q86YC2 (parent)
chain: MDEPPGKPLSCEEKEKLKEKLAFLKREYSKTLARLQRAQRAEKIKHSIKKTVEEQDCLSQQDLSPQLKHSEPKNKICVYDKLHIKTHLDEETGEKTSITLDVGPESFNPGDGPGGLPIQRTDDTQEHFPHRVSDPSGEQKQKLPSRRKKQQKRTFISQERDCVFGTDSLRLSGKRLKEQEEISSKNPARSPVTEIRTHLLSLKSELPDSPEPVTEINEDSVLIPPTAQPEKGVDTFLRRPNFTRATTVPLQTLSDSGSSQHLEHIPPKGSSELTTHDLKNIRFTSPVSLEAQGKKMTVSTDNLLVNKAISKSGQLPTSSNLEANISCSLNELTYNNLPANENQNLKEQNQTEKSLKSPSDTLDGRNENLQESEILSQPKSLSLEATSPLSAEKHSCTVPEGLLFPAEYYVRTTRSMSNCQRKVAVEAVIQSHLDVKKKGFKNKNKDASKNLNLSNEETDQSEIRMSGTCTGQPSSRTSQKLLSLTKVSSPAGPTEDNDLSRKAVAQAPGRRYTGKRKSACTPASDHCEPLLPTSSLSIVNRSKEEVTSHKYQHEKLFIQVKGKKSRHQKEDSLSWSNSAYLSLDDDAFTAPFHRDGMLSLKQLLSFLSITDFQLPDEDFGPLKLEKVKSCSEKPVEPFESKMFGERHLKEGSCIFPEELSPKRMDTEMEDLEEDLIVLPGKSHPKRPNSQSQHTKTGLSSSILLYTPLNTVAPDDNDRPTTDMCSPAFPILGTTPAFGPQGSYEKASTEVAGRTCCTPQLAHLKDSVCLASDTKQFDSSGSPAKPHTTLQVSGRQGQPTCDCDSVPPGTPPPIESFTFKENQLCRNTCQELHKHSVEQTETAELPASDSINPGNLQLVSELKNPSGSCSVDVSAMFWERAGCKEPCIITACEDVVSLWKALDAWQWEKLYTWHFAEVPVLQIVPVPDVYNLVCVALGNLEIREIRALFCSSDDESEKQVLLKSGNIKAVLGLTKRRLVSSSGTLSDQQVEVMTFAEDGGGKENQFLMPPEETILTFAEVQGMQEALLGTTIMNNIVIWNLKTGQLLKKMHIDDSYQASVCHKAYSEMGLLFIVLSHPCAKESESLRSPVFQLIVINPKTTLSVGVMLYCLPPGQAGRFLEGDVKDHCAAAILTSGTIAIWDLLLGQCTALLPPVSDQHWSFVKWSGTDSHLLAGQKDGNIFVYHYS
partner: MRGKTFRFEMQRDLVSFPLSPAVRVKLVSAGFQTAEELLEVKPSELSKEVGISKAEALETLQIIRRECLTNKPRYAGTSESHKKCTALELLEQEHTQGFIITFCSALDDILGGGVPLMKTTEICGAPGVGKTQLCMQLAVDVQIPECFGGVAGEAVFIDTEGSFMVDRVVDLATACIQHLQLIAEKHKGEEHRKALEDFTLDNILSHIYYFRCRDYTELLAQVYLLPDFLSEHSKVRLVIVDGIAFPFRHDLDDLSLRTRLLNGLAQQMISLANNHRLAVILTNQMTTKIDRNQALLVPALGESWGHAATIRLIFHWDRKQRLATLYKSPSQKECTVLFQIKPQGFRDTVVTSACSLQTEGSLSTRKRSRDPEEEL
B2: Partner and localizer of BRCA2 (Homo sapiens), Q86YC2 (parent)
chain: B1 chain
partner: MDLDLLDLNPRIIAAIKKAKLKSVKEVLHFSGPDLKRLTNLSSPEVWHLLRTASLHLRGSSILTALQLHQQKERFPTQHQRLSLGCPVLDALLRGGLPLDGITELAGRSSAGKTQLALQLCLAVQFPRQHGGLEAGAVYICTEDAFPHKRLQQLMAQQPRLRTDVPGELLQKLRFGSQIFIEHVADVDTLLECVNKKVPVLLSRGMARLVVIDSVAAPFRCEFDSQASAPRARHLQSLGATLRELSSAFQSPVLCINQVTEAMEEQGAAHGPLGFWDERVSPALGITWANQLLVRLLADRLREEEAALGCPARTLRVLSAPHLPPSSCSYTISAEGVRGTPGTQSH
B3: Partner and localizer of BRCA2 (Homo sapiens), Q86YC2 (parent)
chain: B1 chain

Variants of: B1
Details: with ra51c_human RAD51C

effect of a mutation on the interaction	Variant
decreasing interaction	T1030I

Variants of: B2
Details: with xrcc3_human XRCC3, O43542

effect of a mutation on the interaction	Variant
decreasing interaction	L939W

Variants of: B3
Details: with rad51_human RAD51, Q06609
rad51_human RAD51, Q06609, sequence (Q06609 whole entry): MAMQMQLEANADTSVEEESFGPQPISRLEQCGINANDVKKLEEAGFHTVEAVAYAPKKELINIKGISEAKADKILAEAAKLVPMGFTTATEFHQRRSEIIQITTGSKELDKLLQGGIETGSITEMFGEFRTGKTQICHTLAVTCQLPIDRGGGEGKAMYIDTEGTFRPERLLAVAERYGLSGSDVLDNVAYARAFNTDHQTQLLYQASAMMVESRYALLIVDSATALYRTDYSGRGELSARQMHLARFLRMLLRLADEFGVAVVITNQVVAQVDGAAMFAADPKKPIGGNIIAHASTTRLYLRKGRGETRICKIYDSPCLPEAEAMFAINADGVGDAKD

effect of a mutation on the interaction	Variant
decreasing interaction	L939W
decreasing interaction	T1030I
